Test results published in patent US20130309233A1 (SORRENTO THERAPEUTICS, published 2013).
Where two headings read alike, the source gives them in different places.

B1: A6 (antibody, IgG1, V domains shown)
VH: QVQLVQSGAEVKKPGSSVKVSCKASGGTFRNHAFSWVRQAPGQGLEWMGWISAYNGYTHYAEKLQGRVTMTTDTSTSTAYMELRSLRSDDTAVYYCARVSASYNSDWSLHYYYGMDVWGQGTTVTVSS
VL: QSVLTQPPSVSAAPGQEVTISCSGSNSNIGNNYVSWYQQLPGTAPKLLIYDNNERPSGIPDRFSGSKSGTSATLGITGLQTGDEADYYCGTWDSSLSAGVFGGGTKLTVL
notes: also called EGFR-A6; Clone A6
B2: D2 (antibody, IgG1, V domains shown)
VH: EVQLVESGGGVVQPGRSLRLSCAASGFIFNHYAMHWVRQAPGKGLEWVAHISSDGSYKFYADSVKGRFTVSRDNSDNTVYLQMNSLGPEDTAVYHCARFTEVLYYGADYWGQGTLVTVSS
VL: QSVLTQPPSVSEAPRQRVSISCSGSSSNIGNNAVNWYQQLPGKAPKLLIYFDDLLPSGVSDRFSGSKSGTSASLAISGLQSEDEADYYCAAWDDSLKGYVFGTGTKVTVL
notes: also called EGFR-D2; Clone D2

Legend:
[1] = target: T1, EGFR expressed on the surface of cells (A431, A549, MCF7 and other EGFR-expressing cell lines) (human, UniProt P00533 25-1210); experiment: cell-based or functional assay
[2] = target: T1, EGFR expressed on the surface of cells …; experiment: cell-based or functional assay; remark: listed apart in the source
[3] = target: T1, EGFR expressed on the surface of cells …; experiment: flow cytometry on A431 cells, 12-point titration, PE anti-human IgG
Method: (§1) In this example, the experimental procedure was as follows: 50,000 A431 cells were aliquoted into the wells of a 96-well, v-bottom plate in 100 ul FACS Buffer (PBS+2% FBS). […] Cells were spun down, washed 1× with FACS Buffer, and then resuspended in 25 μl of antibody solution in triplicate. […] Cells were further incubated for 0.5 hr and then washed 1× with FACS Buffer. Cells were resuspended in 25 ul FACS Buffer and the median fluorescence intensity in the FL2-H channel was determined using the Intellicyt HTFC flow cytometer.
(§2) Data was analyzed and plotted in Graph Pad Prizm using non-linear regression fit. Data points are shown as the median fluorescence intensity (MFI) of positively labeled cells+/−Std Error.

[4] = target: T1, EGFR expressed on the surface of cells …; experiment: flow cytometry on A431 cells, blocking of biotinylated human EGF binding (competitor: Human EGF Biotinylated Fluorokine)
Method: Cells were finally resuspended in 25 μl FACS Buffer and the median fluorescence intensity in the FL1-H channel was determined using an Intellicyt HTFC flow cytometer. […] Data was analyzed and plotted in Graph Pad Prizm using non-linear regression fit. Data points are shown as the median fluorescence intensity (MFI)+/−Std Error.

[5] = target: T1, EGFR expressed on the surface of cells …; experiment: flow cytometry on A431 cells (FIG. 2 legend; the same experiment as paragraph 158, printed with another rounding); A431 cells; FIG. 2 legend
Method: as §1, §2

[6] = target: T1, EGFR expressed on the surface of cells …; experiment: cell-based or functional assay; remark: listed apart in the source

| ADCC Reporter Bioassay (luciferase, RLU) on A431 target cells, EC50 [1] | decrease in EGF stimulated receptor phosphorylation assay in EGFR positive cells (A431) [1] | IC50 (M), inhibition of EGF-stimulated EGFR auto-phosphorylation in A549 cells [2] | EC50 [3] | IC50 [4] | EC50 [5] | IC50 (M), inhibition of EGF-stimulated EGFR auto-phosphorylation in A549 cells [6] | Binder |
| --- | --- | --- | --- | --- | --- | --- | --- |
| 0.06 nM | ~10% | 1.1e-09 M | 1.3 nM | 2.06 nM | 1.29 nM |  | B1 |
| 0.2 nM |  |  | 0.28 nM | 1.35 nM |  | 1.3e-09 M | B2 |
